# Data as given in patent US9534237B2, “Sesquiterpene synthase gene and protein” (University of Kentucky Research Foundation, priority 2003, dated 2017).
# Several values for one entry are separate records, joined by “and”; a condition that tells them apart may be missing. Equal entries are not always repeated.
# B1: CVS: citrus valencene synthase from Citrus paradisi, recombinant His-tagged protein expressed in E. coli, SEQ ID NO.: 4 (protein)
# chain: MSSGETFRPTADFHPSLWRNHFLKGASDFKTVDHTATQERHEALKEEVRRMITDAEDKPVQKLRLIDEVQRLGVAYHFEKEIEDAILKLCPIYIDSNRADLHTVSLHFRLLRQQGIKISCDVFEKFKDDEGRFKSSLINDVQGMLSLYEAAYMAVRGEHILDEAIAFTTTHLKSLVAQDHVTPKLAEQINHALYRPLRKTLPRLEARYFMSMINSTSDHLYNKTLLNFAKLDFNILLEPHKEELNELTKWWKDLDFTTKLPYARDRLVELYFWDLGTYFEPQYAFGRKIMTQLNYILSIIDDTYDAYGTLEELSLFTEAVQRWNIEAVDMLPEYMKLIYRTLLDAFNEIEEDMAKQGRSHCVRYAKEENQKVIGAYSVQAKWFSEGYVPTIEEYMPIALTSCAYTFVITNSFLGMGDFATKEVFEWISNNPKVVKAASVICRLMDDMQGHEFEQKRGHVASAIECYTKQHGVSKEEAIKMFEEEVANAWKDINEELMMKPTVVARPLLGTILNLARAIDFIYKEDDGYTHSYLIKDQIASVLGDHVPF
# modifications: His tag; Citrus X paradisi
# Assays:
# [1] = Terpene synthase reaction product identification by GC-MS (incubation with FPP at pH 7.5); format: biochemical
# Experimental: Partially purified protein was subsequently incubated with FPP at pH 7.5 using typical sesquiterpene synthase reaction conditions and the pentane extractable products examined by GC-MS (FIG. 7). Two compounds accounting for greater than 95% of the total reaction products dominated the GC profiles and were identified as beta-elemene (30%) and valencene (65%) on the basis of MS matches with authentic standards. The beta-elemene peak most certainly represents a thermal rearrangement product of germacrene A resulting from high temperature injection into the GC.
# Small scale reactions of 50 μL were used for screening purposes and rate determinations. Reactions typically contained 200 mM Tris-HCl, pH 7.5, 40 mM MgCl2, 0.5 μCi [1-3H]FPP, 25-30 μM FPP and 160 nM enzyme. For kinetic determinations, 10 μL aliquots of FPP (giving final concentrations of 0.7-23 μM) were rapidly mixed with 40 μL of enzyme solution at room temperature (23° C.) and allowed to incubate for 1 minute. The reactions were terminated by addition of 150 μL, of a 100 mM KOH, 0.5 M EDTA stop solution. Reactions were extracted with 500 μL of hexane and an aliquot was taken for determination of radiolabeled hydrophobic product via liquid scintillation counting. Hexane extracted samples were not subject to silica chromatography prior to counting because background was minimal and synthase mutants could possibly produce reaction products containing alcohols, which would bind to silica. Kinetic constants were determined from direct fits of the Michaelis-Menton equation to the data using Graphpad Prism 2.01 software.
# Initial synthase reaction products were examined by GC-MS. […] Pooled extracts were dried to 50 μL under a stream of nitrogen gas and 1 μL aliquots of this organic extract were analyzed by GC-MS using an HP-GCDplus (Hewlett-Packard, Palo Alto, Calif.) equipped with a DB-5 ms column, an injector temperature of 250° C. and the mass selective detector set to scan for ions within the range from 45 to 250 m/z. […]
# [2] = pH dependence assay of reaction product specificity (GC-MS); format: biochemical
# Experimental: Reactions to determine pH dependence were performed in glass GC-vials with 100 nM of purified enzyme, 20 mM MgCl2, 50 μM FPP (Echelon; Salt Lake City, Utah), and 100 mM buffer at various pH values; total reaction volume 500 μL. The buffers were chosen within one pH unit of the buffer's pKa (pH 5-5.5, acetate; pH 6-7, MES; pH 7.5-9, Tris; pH 9.5-10, ethanolamine; pH 10.5, CAPS). Reactions were allowed to proceed at room temperature for 30 min prior to overlaying with 500 μL of ethylacetate, vortexing for 10 sec, then direct analysis of the reaction products using an HP 6890 gas chromatograph with a 5973 mass spectrometer (Agilent Technologies, Palo Alto, Calif.) with an auto-sampler programmed to remove […] only from the organic phase. GC separations were performed on a 5%-phenyl-methylpolysiloxane column (J&M Scientific, Folsom, Calif.) of 30 m×0.25 mm i.d.×[…] with He as the carrier gas at 2 mL/min and a temperature gradient of 10° C./min from 50° C. (5-min hold) to 180° C. (4-min hold). GC/MS data was analyzed using HP-Chemstation software (version B.01.00) and integration of terpene peaks used for quantification.
# [3] = partially purified protein incubated with FPP at pH 7.5, pentane extractable products, GC-MS
molecule,measurement,setting,value
B1,beta-elemene plus valencene as share of total reaction products,"[1]; pH 7.5, GC profiles",greater than 95%
same,beta-elemene (thermal rearrangement product of germacrene A) as share of total reaction products,[1]; [3],30%
same,valencene as share of total reaction products,[1]; [3],65%
same,pH of transition from valencene to germacrene A as dominant reaction product,[2]; FIG. 10,8.0 pH and ~8.2 pH
same,pH of optimal germacrene A biosynthesis,"[2]; FIG. 10, FPP substrate",8.5 pH
same,pH of optimal valencene biosynthesis,"[2]; FIG. 10, FPP substrate",7.0 pH
same,valencene plus germacrene A (measured as β-elemene) as share of total reaction products,"[2]; at all pHs, ethylacetate extracts, GC-MS",greater than 95%
same,germacrene A as reaction product,[2]; between pH 6.0 to 7.0,virtually no germacrene A was detected
